Experimental data: PMC6965034, “PAK Kinases Target Sortilin and Modulate Its Sorting” (Molecular and Cellular Biology, 2019)

Target: T1, GST-tagged PAK1 (Y270-H545) (human, UniProt Q13153-1 270-545)
T1 construct: human PAK1 C terminus with the entire kinase domain, residues Y270-H545; vector pGEX4T1; also called GST-PAK1; GST-PAK1 kinase domain; source: E. coli BL21, purified; not shown: GST, N-terminal, kept
Assay: ITC; 25 μM GST-PAK1 in the cell titrated with 100 μM sortilin-cd or peptide in 28 steps of 10 μl at 34°C; 100 mM NaCl, 50 mM Tris-HCl pH 7.5 (pH 7.4 in the results); one set of sites model
Conditions: both partners purified

T1 sequence (Q13153 270-545): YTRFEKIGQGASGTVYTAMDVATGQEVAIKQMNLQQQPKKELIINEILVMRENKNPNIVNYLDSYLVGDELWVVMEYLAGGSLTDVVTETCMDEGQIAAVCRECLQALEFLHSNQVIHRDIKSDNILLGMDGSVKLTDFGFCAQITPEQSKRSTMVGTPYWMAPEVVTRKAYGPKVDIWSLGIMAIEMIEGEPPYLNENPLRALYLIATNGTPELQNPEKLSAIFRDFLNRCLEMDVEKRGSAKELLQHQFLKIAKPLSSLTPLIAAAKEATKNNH

B1: complete sortilin cytoplasmic domain (K779-E831), GST tag removed (domain or fragment, human, UniProt Q99523-1 779-831, looked up)
chain: KKYVCGGRFLVHRYSVLQQHAEANGVDGVDALDTASHTNKSGYHDDSDEDLLE
notes: human sortilin cytoplasmic domain K779-E831 (K1-E53 of the cytoplasmic domain); vector pGEX4T1; also called sortilin-cd; wt sortilin-cd; source: E. coli BL21, purified, GST tag removed by thrombin cleavage; not shown: GST, N-terminal, cleaved
B1 gave a Kd of roughly 2000 nM.
